In PMC7437921 one finds efficacy (Emax) remaining, % of WT CXCR4 and decrease in efficacy (Emax) vs WT CXCR4 data, which are given here for one substance.

Experiment in all cases: FRET or BRET
Background: Bioluminescence resonance energy transfer reports proximity on the nanometre scale.

One assay has as its target CXCR4(D187A) (human) (UniProt P61073).
In another assay the target is CXCR4(R30Q) (human) (UniProt P61073).
The target in assay [1] is CXCR4(Δ1–15), HA-free (tagless) (human) (UniProt P61073).
The target in assay [2] is CXCR4(Δ1–25), HA-free (tagless) (human) (UniProt P61073).

renilla GFP fused to mini-Gαsi: the efficacy (Emax) remaining, % of WT CXCR4 with CXCR4(D187A) (human) is 30%; in assay [1], 33%; in assay [2], 23%. The substance also showed a decrease in efficacy (Emax) vs WT CXCR4 with CXCR4(R30Q) (human) of 30%.
